Tests used:
[1] = tested on: chicken Red Blood cells (RBC); assay: QS21 lytic activity, haemolysis assay (limit test); type: cell-based; conditions: example curve; OD of 0.12
Description: QS21 is known to lyse red blood cells (RBC).
QS21 lytic activity was measured by a haemolysis assay using chicken Red Blood cells (RBC). RBC were centrifuged at 550 g at 4° C. Supernatant was discarded. The pellet was carefully resuspended in PBS buffer to reach the initial volume and the same operation was repeated until supernatant was no longer red (generally 3 times). The pellet was stored at 4° C. for 3 to 4 days maximum if not used directly (and washed again the day it is used) or was diluted around 10 times in buffer if used the same day.
A QS21 dose range curve was prepared in ASA buffer (in salt or in sorbitol buffer following the ASA sample tested) extemporaneously and the adjuvant samples (containing a 50 μg or 90 μg equivalent of QS21 meaning the equivalent of 500 μl or 900 μl ASA) were prepared. Final volume was adjusted to 900 μl in standards and samples with adequate buffer (containing or not sorbitol as a function of the buffer of the sample tested). Due to its opalescence, ASA interferes in optical density (OD). […] Optical density at 540 nm was measured after centrifugation. […]
1. Limit of detection (LOD) was defined as the lowest concentration of QS21 leading to an OD: • Higher than the base level (OD>0.1) • Around three times higher than OD's buffer (the “o μg” QS21) • In the ascendant part of the curve • Determined for each test. […]

[2] = Salting out / precipitation of antigen on reconstitution in adjuvant buffer (visual); type: physicochemical
Description: Accordingly, in one embodiment the antigen or antigenic preparation is any antigen which precipitates, coagulates or aggregates after being dissolved in a solution comprising a concentration of sodium chloride (NaCl) or wherein the ionic strength of the solution is greater than 5 mM, 10 mM, 15 mM, 20 mM, 30 mM, 40 mM, 50 mM, 60 mM, 70 mM, 80 mM, 90 mM or 100 mM. The person skilled in the art can determine whether an antigen meets this definition by dissolving and/or mixing an antigen in such a solution. […] An antigen which precipitates, coagulates or aggregates after being dissolved in a solution comprising a concentration of sodium chloride of 100 mM is one which, after 24 hours or less, can be seen to be precipitating by the cloudiness of the solution. In addition, aggregation that is not detectable visually may be observed using methods known to the skilled person which include, but are not limited to SEC-HPLC.
The resulting lyophilsation cake was reconstituted with 625 μl of aqueous adjuvant composition prepared as in Example 2 comprising 150 mM NaCl. The lyophilsation cake contained a 1.25 fold excess of antigen dose to have the right antigen/adjuvant ratio after reconstitution with a final composition of 16 mM Tris, 4 mM borate, 4% sucrose, 0.24% Poloxamer 188, 840 μg/ml CpG and 1000 μg/ml PRAME.
The resulting lyophilsation cake was reconstituted with 625 μl of ASA buffers (150 mM NaCl and sorbitol).
1. PRAME antigen reconstituted in ASA 150 mM NaCl buffer. 2. PRAME antigen reconstituted in ASA sorbitol buffer. 3. NYESO-1 antigen reconstituted in ASA 150 mM NaCl buffer. 4. NYESO-1 antigen reconstituted in ASA sorbitol buffer.
FIG. 4 is a photographic comparison between PRAME and NYESO-1 reconstituted in ASA (150 mM NaCl) and ASA (sorbitol). […] Similarly, NY-ESO reconstituted in ASA (150 mM NaCl) appears cloudy compared to NY-ESO antigen reconstituted in ASA (sorbitol).

Substance	Limit of Detection (lowest concentration of QS21 leading to OD above base level) [1]	appearance after reconstitution ([2]; lyophilised with CpG, reconstituted in ASA (150 mM NaCl), compared to ASA (sorbitol), FIG. 4)	salting out in adjuvant composition ([2]; salt concentration reduced to 5 mM and sorbitol included (ASA sorbitol buffer), FIG. 4)	concentration of sodium chloride at which the antigens aggregate and precipitate ([2]; salting out, as low as)
QS21	0.9 µg	–	–	–
PRAME: tumour protein antigen, described in U.S. Pat. No. 5,830,753; co-lyophilised with CpG 2006 in the examples	–	cloudy	prevents “salting out”	150000 µM

From patent US20120093921A1, “IMMUNOGENIC COMPOSITIONS HAVING LOW SODIUM CHLORIDE CONCENTRATION” (GLAXOSMITHKLINE BIOLOGICALS S.A., priority 2009, published 2012)
